From US20250092109A1 (XILIO DEVELOPMENT, published 2025)

B2: IL-2 V2 (ligand)
chain: APTSSSTKKTQLQLEHLLLDLQMILNGINNYKNPKLTAMLTAKFAMPKKATELKHLQCLEEALKPLEEVLNLAQSKNFHLRPRDLISNINVIVLELKGSETTFMCEYADETATIVEFLNRWITFAQSIISTLT

Legend:
[1] = molecular target: T1, CD25 on CD25+ cells (UniProt P01589 22-272, limits assumed); test: cell-based or functional assay
T1 sequence (looked up): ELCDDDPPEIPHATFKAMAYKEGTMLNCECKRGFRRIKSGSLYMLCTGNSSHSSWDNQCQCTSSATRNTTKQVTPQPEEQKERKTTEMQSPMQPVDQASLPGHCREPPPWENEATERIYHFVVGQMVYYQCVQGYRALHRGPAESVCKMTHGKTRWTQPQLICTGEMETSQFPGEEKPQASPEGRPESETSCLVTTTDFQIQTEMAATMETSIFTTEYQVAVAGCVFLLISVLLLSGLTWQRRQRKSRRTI

[2] = molecular target: T2, IL-2 (UniProt P60568 21-153); test: SPR
T2 construct: also called interleukin 2
Target sequence in this assay (P60568 21-153 limits assumed): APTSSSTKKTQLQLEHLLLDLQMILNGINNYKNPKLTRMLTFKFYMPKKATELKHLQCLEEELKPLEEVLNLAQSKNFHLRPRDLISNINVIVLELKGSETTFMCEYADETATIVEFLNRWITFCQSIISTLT

[3] = molecular target: IL-2 V3 (Homo sapiens (Human), UniProt P60568 21-153); test: cell-based or functional assay
[4] = molecular target: B2; test: cell-based or functional assay
[5] = molecular target: T2, IL-2; test: SPR, criterion of kinetic Group 2

B1: IL-2 V7 (ligand)
chain: APTSSSTKKTQLQLEHLLLDLQMILNGINNYKNPKLTRMLTSKFYMPKKATELKHLQCLEESLKPLEEVLNLAQSKNFHLRPRDLISNINVIVLELKGSETTFMCEYADETATIVEFLNRWITFAQSIISTLT
- EC50 (read off the curve), %pSTAT5+ of CD4+FoxP3+CD25+ cells [1]: ~3000 pM

Binder: B2
- EC50 (read off the curve), %pSTAT5+ of CD4+FoxP3+CD25+ cells [1]: ~4000 pM

B3: VHH1 (VHH)
VHH: EVQLVESGGGLVQPGGSLRLSCAASGSIFSINVMGWYRQAPGKQRELVAAISSGGSTNYADSVKGRFTISRDNAKNTVYLQMNSLKPEDTAVYYCMYASSWYEDETDYWGQGTQVTVSS
notes: In the functional rows it stood as the masking moiety of constructs C7, C2, C4 and C6, fused to an Fc chain; also called Parental; parental anti-IL-2
- Kd [2]: 0.0601 nM
- koff [2]: 3.28e-05 s⁻¹
- kon [2]: 546000 M⁻¹ s⁻¹
- Average EC50 (nM) with MMP, construct C2, pSTAT5 on CD8+ T cells of hPBMCs [3]: 0.23 nM
- Average EC50 (nM) with MMP, construct C4, pSTAT5 on CD8+ T cells of hPBMCs [3]: 0.26 nM
- Average EC50 (nM) with MMP, construct C6, pSTAT5 on CD8+ T cells of hPBMCs [3]: 0.28 nM
- Average EC50 (nM) without MMP, construct C2, pSTAT5 on CD8+ T cells of hPBMCs [3]: 137 nM
- Average EC50 (nM) without MMP, construct C4, pSTAT5 on CD8+ T cells of hPBMCs [3]: 136 nM
- Average EC50 (nM) without MMP, construct C6, pSTAT5 on CD8+ T cells of hPBMCs [3]: 470 nM
- Fold Change (Cleaved/Unmasked Control), construct C2 [3]: 4.2 fold
- Fold Change (Cleaved/Unmasked Control), construct C4 [3]: 4.7 fold
- Fold Change (Cleaved/Unmasked Control), construct C6 [3]: 5.1 fold
- Fold Masking (Uncleaved/Unmasked Control), construct C2 [3]: 2490 fold
- Fold Masking (Uncleaved/Unmasked Control), construct C4 [3]: 2470 fold
- Fold Masking (Uncleaved/Unmasked Control), construct C6 [3]: 8550 fold
- EC50 (pM) of intact construct C7, HEK Blue cell-based reporter assay [4]: 3390 pM
- Fold Change (Intact/Cleaved), construct C7, HEK Blue assay [4]: 112 fold
- Fold Change (Intact/Parental), construct C7, HEK Blue assay [4]: 101 fold

B4: VHH46 (VHH)
VHH: EVQLVESGGGLVQPGGSLRLSCAASGSIFSINVMGWYRQAPGKQRELVAAISSGGSTNYADSVKGRFTISRDNAKNTVYLQMNSLKPEDTAVYYCMYASSWYEDETDYWGQGTQVTVSS
- Average EC50 (nM) with MMP, construct C5, pSTAT5 on CD8+ T cells of hPBMCs [3]: 0.25 nM
- Average EC50 (nM) without MMP, construct C5, pSTAT5 on CD8+ T cells of hPBMCs [3]: 411 nM
- Fold Change (Cleaved/Unmasked Control), construct C5 [3]: 4.5 fold
- Fold Masking (Uncleaved/Unmasked Control), construct C5 [3]: 7470 fold

B5: VHH12 (VHH)
VHH: EVQLVESGGGLVQPGGSLRLSCAASGSIFSINVMGWYRQAPGKGRELVAAISSGGSTNYADSVKGRFTISRDNAKNTVYLQMNSLKPEDTAVYYCAYASSYYEDETDYWGQGTQVTVSS
notes: In the functional rows it stood as the masking moiety of constructs C13 and C1; also called Q44G, M96A, W101Y
- Kd [2]: 12.7 nM
- koff [2]: 3.97 s⁻¹
- Average EC50 (nM) with MMP, construct C1, pSTAT5 on CD8+ T cells of hPBMCs [3]: 0.051 nM
- Average EC50 (nM) without MMP, construct C1, pSTAT5 on CD8+ T cells of hPBMCs [3]: 28.1 nM
- Fold Change (Cleaved/Unmasked Control), construct C1 [3]: 0.9 fold
- Fold Masking (Uncleaved/Unmasked Control), construct C1 [3]: 511 fold
- EC50 (pM) of intact construct C13, HEK Blue cell-based reporter assay [4]: 3130 pM
- Fold Change (Intact/Cleaved), construct C13, HEK Blue assay [4]: 158 fold
- Fold Change (Intact/Parental), construct C13, HEK Blue assay [4]: 93.1 fold

B6: VHH40 (VHH)
VHH: EVQLVESGGGLVQPGGSLRLSCAASGSIFSINVMGWYRQAPGKQRELVAAISSGGSTNYADSVKGRFTISRDNAKNTVYLQMNSLKPEDTAVYYCMYASSWYEDETDYRGQGTLVTVSS
notes: also called W109R, Q114L
- kd relative to VHH1 kd [5]: > 6 fold of VHH1 kd

B7: VHH21 (VHH)
VHH: EVQLVESGGGLVQPGGSLRLSCAASGSIFSSNVMGWYRQAPGKQRELVAAISSGGSTNYADSVKGRFTISRDNAKNTVYLQMNSLKPEDTAVYYCAYASSFYEDETDYWGQGTQVTVSS
notes: also called I31S, M96A, W101F
- kd relative to VHH1 kd [5]: > 6 fold of VHH1 kd

B8: VHH5 (VHH)
VHH: EVQLVESGGGLVQPGGSLRLSCAASGSIFSINVMGWYRQAPGKQRELVAAISSGGSTNYADSVKGRFTISRDNAKNTVYLQMNSLKPEDTAVYYCAYASSWYEDETDYWGQGTQVTVSS
notes: also called M96A
- kd relative to VHH1 kd [5]: > 6 fold of VHH1 kd

B9: VHH7 (VHH)
VHH: EVQLVESGGGLVQPGGSLRLSCAASGSIFSINVMGWYRQAPGKGLELVAAISSGGSTNYADSVKGRFTISRDNAKNTVYLQMNSLKPEDTAVYYCMYASSWYEDETDYWGQGTQVTVSS
notes: In the functional rows it stood as the masking moiety of construct C9; also called Q44G, R45L
- Kd [2]: 0.187 nM
- koff [2]: 0.000111 s⁻¹
- kon [2]: 595000 M⁻¹ s⁻¹
- EC50 (pM) of intact construct C9, HEK Blue cell-based reporter assay [4]: 6240 pM
- Fold Change (Intact/Cleaved), construct C9, HEK Blue assay [4]: 201 fold
- Fold Change (Intact/Parental), construct C9, HEK Blue assay [4]: 186 fold

B10: VHH36 (VHH)
VHH: EVQLVESGGGLVQPGGSLRLSCAASGSIFSSNVMGWYRQAPGKGLELVAAISSGGSTNYADSVKGRFTISRDNAKNTVYLQMNSLKPEDTAVYYCAYASSYYEDETDYWGQGTQVTVSS
notes: In the functional rows it stood as the masking moiety of construct C11; also called I31S, Q44G, R45L, M96A, W101Y
- Kd [2]: 3.99 nM
- koff [2]: 0.00237 s⁻¹
- kon [2]: 594000 M⁻¹ s⁻¹
- kd relative to VHH1 kd [5]: > 6 fold of VHH1 kd
- EC50 (pM) of intact construct C11, HEK Blue cell-based reporter assay [4]: 2860 pM
- Fold Change (Intact/Cleaved), construct C11, HEK Blue assay [4]: 118 fold
- Fold Change (Intact/Parental), construct C11, HEK Blue assay [4]: 84.9 fold

B11: VHH9 (VHH)
VHH: EVQLVESGGGLVQPGGSLRLSCAASGSIFSINVMGWYRQAPGKGRELVAAISSGGSTNYADSVKGRFTISRDNAKNTVYLQMNSLKPEDTAVYYCAYASSFYEDETDYWGQGTQVTVSS
notes: In the functional rows it stood as the masking moiety of construct C12; also called Q44G, M96A, W101F
- Kd [2]: 10.9 nM
- EC50 (pM) of intact construct C12, HEK Blue cell-based reporter assay [4]: 4140 pM
- Fold Change (Intact/Cleaved), construct C12, HEK Blue assay [4]: 180 fold
- Fold Change (Intact/Parental), construct C12, HEK Blue assay [4]: 123 fold

B12: VHH6 (VHH)
VHH: EVQLVESGGGLVQPGGSLRLSCAASGSIFSINVMGWYRQAPGKGRELVAAISSGGSTNYADSVKGRFTISRDNAKNTVYLQMNSLKPEDTAVYYCMYASSWYEDETDYWGQGTQVTVSS
notes: In the functional rows it stood as the masking moiety of construct C8; also called Q44G
- Kd [2]: 0.00457 nM
- koff [2]: 2.18e-06 s⁻¹
- kon [2]: 476000 M⁻¹ s⁻¹
- EC50 (pM) of intact construct C8, HEK Blue cell-based reporter assay [4]: 4270 pM
- Fold Change (Intact/Cleaved), construct C8, HEK Blue assay [4]: 176 fold
- Fold Change (Intact/Parental), construct C8, HEK Blue assay [4]: 127 fold

B13: VHH31 (VHH)
VHH: EVQLVESGGGLVQPGGSLRLSCAASGSIFSSNVMGWYRQAPGKGLELVAAISSGGSTNYADSVKGRFTISRDNAKNTVYLQMNSLKPEDTAVYYCAYASSFYEDETDYWGQGTQVTVSS
notes: also called I31S, Q44G, R45L, M96A, W101F
- kd relative to VHH1 kd [5]: > 6 fold of VHH1 kd

B14: VHH26 (VHH)
VHH: EVQLVESGGGLVQPGGSLRLSCAASGSIFSSNVMGWYRQAPGKQRELVAAISSGGSTNYADSVKGRFTISRDNAKNTVYLQMNSLKPEDTAVYYCAYASSYYEDETDYWGQGTQVTVSS
notes: In the functional rows it stood as the masking moiety of construct C10; also called I31S, M96A, W101Y
- Kd [2]: 1.35 nM
- koff [2]: 0.00427 s⁻¹
- kon [2]: 3.15e+06 M⁻¹ s⁻¹
- kd relative to VHH1 kd [5]: > 6 fold of VHH1 kd
- EC50 (pM) of intact construct C10, HEK Blue cell-based reporter assay [4]: 3970 pM
- Fold Change (Intact/Cleaved), construct C10, HEK Blue assay [4]: 202 fold
- Fold Change (Intact/Parental), construct C10, HEK Blue assay [4]: 118 fold
